T1: SmNodC (Sinorhizobium meliloti, UniProt P04341)
T1 construct: gene nodC; full-length (1-426), C-terminal mCherry-His fusion from pEXmCherry, E. coli BL21(DE3) C43 membrane fraction, not purified
T1 sequence (P04341 1-426): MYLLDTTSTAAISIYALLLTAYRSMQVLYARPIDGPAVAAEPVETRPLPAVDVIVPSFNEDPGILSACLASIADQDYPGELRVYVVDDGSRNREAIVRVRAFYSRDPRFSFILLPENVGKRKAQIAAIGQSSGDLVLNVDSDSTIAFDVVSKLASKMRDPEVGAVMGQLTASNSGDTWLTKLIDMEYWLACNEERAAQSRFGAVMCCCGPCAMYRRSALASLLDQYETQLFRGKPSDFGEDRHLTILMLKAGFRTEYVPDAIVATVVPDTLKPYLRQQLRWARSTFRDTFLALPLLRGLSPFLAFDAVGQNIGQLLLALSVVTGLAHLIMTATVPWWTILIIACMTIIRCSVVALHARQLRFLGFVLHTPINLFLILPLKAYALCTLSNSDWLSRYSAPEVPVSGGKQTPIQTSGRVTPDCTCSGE


How the values were obtained:
Experiment in all cases: coupled fluorogenic assay: chitinase B releases 4MU from 4MU-chitooligosaccharide product
SmNodC = molecular target: T1, SmNodC; type: biochemical
Excerpt: coupled fluorogenic assay: chitinase B releases 4MU from 4MU-chitooligosaccharide product on SmNodC | Nikkomycin Z is a competitive inhibitor with the substrate UDP-GlcNAc, with a Ki of […]

[1] = substrate: CC(=O)N[C@H]1[C@H](Oc2ccc3c(C)cc(=O)oc3c2)O[C@H](CO)[C@@H](O)[C@@H]1O; type: biochemical, Sinorhizobium meliloti; settings: acceptor substrate, excess UDP-GlcNAc as co-substrate, 10 mM MgCl2, pH 7.5, 250 mM NaCl, 20 °C, E. coli membrane fraction
[2] = substrate: CC(=O)N[C@H]1[C@@H](OP(=O)(O)OP(=O)(O)OC[C@H]2O[C@@H](n3ccc(=O)[nH]c3=O)[C@H](O)[C@@H]2O)O[C@H](CO)[C@@H](O)[C@@H]1O; type: biochemical, Sinorhizobium meliloti; settings: excess 4MU-GlcNAc as co-substrate, 10 mM MgCl2, pH 7.5, 250 mM NaCl, 20 °C, E. coli membrane fraction

Ki (SmNodC) | Molecule | Km [1] | Km [2]
250 nM | C[C@@H]([C@H](N)C(=O)N[C@H](C(=O)O)[C@H]1O[C@@H](n2ccc(=O)[nH]c2=O)[C@H](O)[C@@H]1O)[C@H](O)c1ccc(O)cn1 [Nikkomycin Z] | – | –
– | SmNodC (Sinorhizobium meliloti 1021) (protein, full-length (1-426), C-terminal mCherry-His fusion from pEXmCherry, E. coli BL21(DE3) C43 membrane fraction, not purified) MYLLDTTSTAAISIYALLLTAYRSMQVLYARPIDGPAVAAEPVETRPLPAVDVIVPSFNEDPGILSACLASIADQDYPGELRVYVVDDGSRNREAIVRVRAFYSRDPRFSFILLPENVGKRKAQIAAIGQSSGDLVLNVDSDSTIAFDVVSKLASKMRDPEVGAVMGQLTASNSGDTWLTKLIDMEYWLACNEERAAQSRFGAVMCCCGPCAMYRRSALASLLDQYETQLFRGKPSDFGEDRHLTILMLKAGFRTEYVPDAIVATVVPDTLKPYLRQQLRWARSTFRDTFLALPLLRGLSPFLAFDAVGQNIGQLLLALSVVTGLAHLIMTATVPWWTILIIACMTIIRCSVVALHARQLRFLGFVLHTPINLFLILPLKAYALCTLSNSDWLSRYSAPEVPVSGGKQTPIQTSGRVTPDCTCSGE | 1600 ± 400 µM | 90 ± 15 µM

— publication PMC4132801, “A Structural and Biochemical Model of Processive Chitin Synthesis” (The Journal of Biological Chemistry, 2014)
